Experimental findings from US6919434 are described below.

The data set concerns the molecule itself. The experiment in a line: SDS-PAGE under reducing and non-reducing conditions (60 kD against 120 kD). How it is done: The two protein peaks with OCIF activity (peaks 6 and 7) were subjected to SDS-polyacrylamide gel electrophoresis under reducing and non-reducing conditions. Briefly, 20 μL of each peak fraction was concentrated under vacuum and dissolved in 1.5 μL of 10 mM Tris-HCl, pH 8, 1 mM EDTA, 2.5% SDS, 0.01% bromophenol blue, and incubated at 37° C. overnight under non-reducing conditions or under reducing conditions (with 5% of 2-mercaptoethanol). Each 1.0 μL of sample was then analyzed by SDS-polyacrylamide gel electrophoresis with a gradient gel of 10–15% acrylamide (Pharmacia Co.) and an electrophoresis-device (Fast System, Pharmacia Co.). The following molecular weight marker proteins were used to calculate molecular weight: phosphorylase b (94 kD), bovine serum albumin (67 kD), ovalbumin (43 kD), carbonic anhydrase (30 kD), trypsin inhibitor ([…]), and lactalbumin (14.4 kD). After electrophoresis, protein bands were visualized by silver stain using Phast Silver Stain Kit.

B1: osteoclastogenesis inhibitory factor (OCIF) (other)
chain: ETFPPKYLHYDEETSHQLLCDKCPPGTYLKQHCTAKWKTVCAPCPDHYYTDSWHTSDECLYCSPVCKELQYVKQECNRTHNRVCECKEGRYLEIEFCLKHRSCPPGFGVVQAGTPERNTVCKRCPDGFFSNETSSKAPCRKHTNCSVFGLLLTQKGNATHDNICSGNSESTQKCGIDVTLCEEAFFRFAVPTKFTPNWLSVLVDNLPGTKVNAESVERIKRQHSSQEQTFQLLKLWKHQNKDQDIVKKIIQDIDLCENSVQRHIGHANLTFEQLRSLMESLPGKKVGAEDIEKTIKACKPSDQILKLLSLWRIKNGDQDTLKGLMHALKHSKTYHFPKTVTQSLKKTIRFLHSFTMYKLYQKLFLEMIGNQVQSVKISCL
notes: Secreted glycoprotein, present as a 60 kD monomer and a 120 kD homodimer under non-reducing conditions; Natural OCIF from IMR-90 medium coated the plates in the hybridoma ELISA; Recombinant OCIF was the standard in the polyclonal EIA; Unaltered OCIF in 293/EBNA conditioned medium was used in the western blot; also called nOCIF; natural OCIF
For B1, the binding result is “binds”.
